Laboratory results reported in article PMC9065997, “Mitochondria-associated myosin 19 processively transports mitochondria on actin tracks in living cells” (The Journal of Biological Chemistry, 2022).

Biological target: the molecule itself
Test: single-molecule photobleaching steps and spot intensity distribution (TIRF microscopy, HILO illumination); Halo-HM19 constructs expressed in living HeLa cells, stained with R110 Direct HaloTag ligand, spots in filopodia, 37 °C

B1: Halo-HM19^IQ3LZ (tail-truncated human myosin 19, residues 1-834, forced dimer with GCN4 leucine zipper, N-terminal HaloTag) (other)
chain: MLQQVNGHNPGSDGQAREYLREDLQEFLGGEVLLYKLDDLTRVNPVTLETVLRCLQARYMADTFYTNAGCTLVALNPFKPVPQLYSPELMREYHAAPQPQKLKPHVFTVGEQTYRNVKSLIEPVNQSIVVSGESGAGKTWTSRCLMKFYAVVATSPASWESHKIAERIEQRILNSNPVMEAFGNACTLRNNNSSRFGKFIQLQLNRAQQMTGAAVQTYLLEKTRVACQASSERNFHIFYQICKGASEDERLQWHLPEGAAFSWLPNPERSLEEDCFEVTREAMLHLGIDTPTQNNIFKVLAGLLHLGNIQFAASEDEAQPCQPMDDAKYSVRTAASLLGLPEDVLLEMVQIRTIRAGRQQQVFRKPCARAECDTRRDCLAKLIYARLFDWLVSVINSSICADTDSWTTFIGLLDVYGFESFPDNSLEQLCINYANEKLQQHFVAHYLRAQQEEYAVEGLEWSFINYQDNQPCLDLIEGSPISICSLINEECRLNRPSSAAQLQTRIETALAGSPCLGHNKLSREPSFIVVHYAGPVRYHTAGLVEKNKDPIPPELTRLLQQSQDPLLMGLFPTNPKEKTQEEPPGQSRAPVLTVVSKFKASLEQLLQVLHSTTPHYIRCIKPNSQGQAQTFLQEEVLSQLEACGLVETIHISAAGFPIRVSHRNFVERYKLLRRLHPCTSSGPDSPYPAKGLPEWCPHSEEATLEPLIQDILHTLPVLTQAAAITGDSAEAMPAPMHCGRTKVFMTDSMLELLECGRARVLEQCARCIQGGWRRHRHREQERQWRAVMLIQAAIRSWLTRKHIQRLHAAATVIKRAWQKWRIRMACLAAKELDGGTTHSYTSMKQLEDKVEELLSKNYHLENEVARLKKLVGERTSMKQLEDKVEELLSKNYHLENEVARLKKLVGERTSGSEL
modifications: rhodamine 110 (R110 Direct HaloTag ligand) on the HaloTag
notes: myosin 19 (Myo19, HM19), human, residues 1-834 (motor domain and three IQ motifs; 835 to 970 removed), cDNA from GeneCopoeia NM_001163735.1; also called R110-Halo-HM19^IQ3LZ; R110-Halo-HM19^IQ3-LZ; source: HeLa cells, transfected, in living cells; not shown: HaloTag, N-terminal, kept
  stoichiometry N: 2
